Results on 100 substances are retold here after the supplement of paper PMC11502859.
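Note: lentiviral eGFP-IRES-mCherry reporter pool sorted by FACS 96 h post-transduction, gated on mCherry-high cells, Illumina read counts normalized per million, median across four biological replicates.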

The test system of this data set is HEK293T. The data set is described as follows: median enrichment of reporter reads in eGFP-reduced (low/intermediate) vs eGFP-high sorted cells (eGFP-extension fusion abundance) (ratio); higher = stronger loss of eGFP-fusion protein abundance (more destabilising extension).
Take RYCSTQPNL [BRPF1]: the median enrichment came out at 3.69.
The figure for “YIFYSHSVVQSSALGIYLCSQRSNSHLLYCLCLKEFESFLIFIIHLRTRDPCLAVWSKADYAAWRQDSDRASERAKSCQKETE [GABRA1]” is 10.4.
On to LFVKLCLIM [GPR112], for which the median enrichment was 13.7.
As to KKKK [Lys04], the median enrichment amounted to 0.575.
The figure for “QRPVLVSHPCHSRSLPVPLLPKMPWLDWTPSPHDHASDCHPLPVPKSMCTPLTTGTAPPNHRHQATI [PTPRCAP]” is 8.88.
As to LIA [ACAT2], the median enrichment was 1.03.
In the case of YTCPYSSRALNLLLTNHLLRC [KCNU1], the median enrichment was found to be 11.9.
To NNNNNN [Asn06] belongs 0.37.
YNIVYVFCHL [KIAA1586]: the median enrichment stood at 8.8.
To QEGPGGPAVLSPAPLGGVW [GALNT2] belongs 0.738; to WSRS [LCE3E], 1.42.
For the substance SVSGNHEGIWQ [MOAP1], the median enrichment is 0.522.
To RRRR [Arg04] belongs 0.344; to “RCAGSFLPSVKGQRCADLIFQLTTCFKRKIAHEKCLLAFQSIFEITG [FAM104A]”, 5.07; to “EETTHPEPQHCLTLGTRDPTEMFWRAGGFPQSPPSSSPSNQSCV [SERPINA6]”, 0.705.
Consider RRKCLLPW [PKD1L2], for which the median enrichment is 1.93.
Take RGRTSALSDRTLRAMLPCHP [MRGPRX3]: the median enrichment stood at 6.81.
The figure for SSLPWAG [TMEM266] is 5.32.
As for “RGRGCPPRPLTPPAAVAAILPLAWGLPSPSQSISPPPSCSGWMWACR [KMT2B]”, the median enrichment is 4.49.
The figure for “LPAASLHAPRSSLHGSPGRWQTMLRLHQGHRGAEGPMGEERRALLGKVGFLDPRDKLFRCHNVEESTWGTTVLVQVGLGKCTS [IGHMBP2]” is 3.92.
To “TTMERWAVAMVDGLPGWAFELALGTTRLSLSSHGTQKCAAMLPRVLSPHLSQPSWRPGLSLQPLGPALIAGGQALDLEGLAHP [ADGRG1]” belongs 5.12; to “LRWLACWAWGLLTDSMEQGWAVCAHAQHALRGGGGGRGFLMSVQELKVSGVLPRICPTPHDKTELCNKQYQFILAVGFCFFSS [WDR6]”, 7.93.
As for QRKKRKTALGLAYGLRGCCC [WEE2], the median enrichment was 6.66.
To LKDRFFKLT [RBBP6] belongs 3.7; to GVWLSHGIPGKGLTQ [PTPA], 2.08; to GGGGGG [Gly06], 2.43.
Turning to “YSQTNTPYVSVNPCYLSRVCYFPSHRPNPWSPRGSHTTAITQCRGHA [HIP1]”, the median enrichment came to 2.78.
Turning to YDVQRRLNKCTAE [VPS33A], the median enrichment was found to be 0.744.
For the substance “LAHPKYACHLRPQAGHTGQPACRQDLPASSSQYSLQRLKCEAPAPPSALQPTGPGRTCPLSVSPSRVPRWRPLSTG [PAK6]”, the median enrichment was determined as 3.88.
The figure for “SSMMHGDFHFHIFPFFCFCFSRNGGNPVYSMPVLSYSSLLLYILLLYQKN [HIVEP2]” is 33.7.
To “SGPGIHVGGRGRGGRREGRGEIHTVDTLTSWPKSLPQDLPDLHGQASYGGVSISFFLFLFPGLRASWGPRFTNSPTPLKLWRR [AQP1]” belongs 5.75.
As to KAQKTEALLPLAGSRDI [PNMA5], the median enrichment was 0.301.
For SIPHPGSSAPRAGGHLRSVISL [IP6K2], the median enrichment was 0.975.
The figure for KPKEVPGTVSDLERSQKENNIIK [CELA2A] is 0.
The figure for “RPCAEALPGFTQLMDSSVLTLSTTPFTSLFDFRSYRHCLR [GINS1]” is 7.78; for WRPNSRTPK [SNRNP35] it is 0.861.
For RSSKPTKHQKTHSQTSEHKLHG [PLCB4], the median enrichment was 0.191.
To “SRDLDLGGVVRSSGRVPPGSPGEYMSPALGGVCYWPPTFLPRWTVLL [OXCT2]” belongs 3.71.
Take “ADLTPAQPPPPTSHSGLVLCLLFRTPLCPPKRQKKKKKKKSKKTSEKSAAKKWMSCNFSRDGAGGVCVPTGPGGPLRGGHAAR [PITX1]”: the median enrichment stood at 10.
The figure for WNFENKI [RNASEH2B] is 0.528.
The figure for WWWWWWWW [Trp08] is 4.57; for LATWRNCLCTGCGPTLSS [MED12] it is 15.1.
As for “YEPYSFKPYVFLCAFFPYPSSLALPFLNTAAL [UBQLN3]”, the median enrichment worked out at 7.8.
With RTSRPTTLRKIEW [HCAR1], the median enrichment amounted to 1.94.
The figure for YNYLSPL [FAM104B] is 2.29; for “GNHGARAARCVQRRAHRHHPHPDQPAYRGARAPLPEAAQGHQR [UCKL1]” it is 0.821.
Consider LEMKKDEVLTQ [DNAJC5G], for which the median enrichment is 0.255.
To “SVDTPAPVGMDGPDFMASGTWAQRGACGRGWENKVQGRDQTAASLYMPS [ITIH3]” belongs 32.4; to KEENKQNQPPHHRVLQQDMHTIGA [CDCA7L], 11.9; to “DQPHSAQEAASGVGAQRGTAASSTAGCGAAGPGPSAWAAEYIFYLSETSIFLGSNPTCHHVDISSYLTMLSLLGAVLVGPGPC [BAP1]”, 4.59.
Take CVSSFTDSPQPFSCLKT [DPH6]: the median enrichment was determined as 3.83.
The figure for “QVFGKQQRASPLPGGLPCRFWASFPCLSLFRCAFHL [MAP2K1]” is 13.2; for “GSSTETGASSSSLGCGPSSRTRTSATSRASWRAWASARAASSLTASAASSAA [CCM2L]” it is 13.6.
In the case of RTRIPNYISTDAFHFNSS [SAMSN1], the median enrichment turned out to be 2.43.
Consider YKGRAQQCK [IRX2], for which the median enrichment worked out at 0.955.
The figure for RGKTTGRPESGPARCSGEFLISSHWGN [BPIFB2] is 0.953; for YDGHISFIGE [CFLAR] it is 0.753.
Turning to “LAPRPRETGWRHGAGPSFHGACGCRAGGAAESGPGPLPAGGDFFFSYF [GNA11]”, the median enrichment was determined as 11.8.
The figure for IIII [Ile04] is 11.9.
The figure for “RGASLLSSHSGSSFHPPPSPPPTRGTWWREAGRLFCGIARSSLWCRLVAITCNKAPGKGK [TLE6]” is 21.9.
As for “VSSFLLVFFILFSFHQPSCILALQRDRDRSSAQGFSLPLFIMGGGYHPPSQSCEESGTSFFPTSLFPHSFLSPSGLSFPYTLT [NOTCH3]”, the median enrichment was determined as 5.94.
As to YKYTLTERDNRQRGSVAEDPLLCLY [TNIP3], the median enrichment worked out at 7.19.
For the substance QGSYGIPPRSARA [CDKN2A], the median enrichment was determined as 5.31.
To CPQPGY [B3GNT7] belongs 0.431; to LYVTVSCLSSSMYF [ARHGEF35], 14.4; to RIQPKCQVRSEGIFH [ABCC4], 1.49.
With “WGATSFSTTMLLHFPTPTRPPSSPPTPFSHSHPHHRSLDCWEWKPGGVMAQVL [RAMP2]”, the median enrichment worked out at 8.95.
Turning to EFK [BBS9], the median enrichment came to 0.267.
For the substance SREHENGSMTLPDTDAT [TP53], the median enrichment was 0.734.
Turning to “LWAHHKDTSSLCRHHPAIESGGPCWSLWTYSSRPEKSLALELNSLDCTITTTYELRDYEGLFRGYESEPLFLEL [TMEM177]”, the median enrichment amounted to 9.96.
Regarding KGRGPAESPCCLLEPPADAVLGPT [MBD3], the median enrichment stood at 1.08.
To YIMYYPDLVGKVLS [OPRM1] belongs 11.7; to WQP [TP53AIP1], 0.544; to QEGQDLYSRLVQQRLMD [TAP2], 0.376.
The figure for “WPPGTSLALLTHPRNTISGTRAAPRTRGYSRHNLIERAPAALTSTAFDTYASLVLLLSSESSCAHAFSRMGSPLAVAASVLAL [KIAA1522]” is 8.47; for RRRRRR [Arg06] it is 0.898; for SGWGWTNNQARAEGFMERPLGDPR [S1PR2] it is 0.739.
Take “LRQRQHQCRACPAALSLHALRAPLLLRYPFETSGAGPLPASLTIPRPLSHLGLGKPDSTQDQGSHEARRLRGSCPFSYSRA [SHOX2]”: the median enrichment is 5.48.
Turning to KTKAKYIDFTVILKYNKNC [IL26], the median enrichment is 5.5.
With “SDQAVLEDRQIYTPHTHTTYTTHTRSHPLTHTLHRLLPYSWTFI [BMP4]”, the median enrichment is 9.46.
The figure for CVTVLDFSKTSFNTE [GABRB3] is 4.69; for WRPRIQH [FAR1] it is 1.02.
On to LCT [DUSP22], for which the median enrichment amounted to 1.23.
On to YALDKNLNRKNNSKAYLMKQ [CYLC2], for which the median enrichment came to 2.34.
The figure for KECSKCGGKS [ZNF671] is 0.995; for RGPALPPCTSPGAERS [PRMT1] it is 1.08; for “KNAPSDLASKKSCSVPCVLSFKGIFRINSDLEDSSVLQRLAFIFIVIMEMLSFILSYIRKKGVMQLISISLGNALVLFSSFLV [CREB5]” it is 15.5.
To “YKPQAPLADGRQGEKRRSSWTSETTVELRREAT [IGFL3]” belongs 1.72; to “SGSRRSRRDPHGSIALASDLAWRYFCRELGSRNASDLSALHIVGLKSGWELAKSLFRLFN [MRPL34]”, 8.92; to QAMPRPRT [CREB3L1], 0.317.
Consider QTA [FMR1], for which the median enrichment was found to be 0.337.
To LTLTV [ABCB1] belongs 1.67; to RKTWPENPQVLQRKTELGKGESWKDGAD [ABHD15], 1.61.
Regarding “SDPTSPSAFHWLCHGLYKQIIFPLFKIKSPNENLGM [PRSS37]”, the median enrichment is 5.12.
Regarding EFIFKRFSECAQNTWLK [TRMT10C], the median enrichment worked out at 5.59.
Regarding “GSRGRGGESPPRPPLPSPPGSRGSGLGRLPIPLLQAALIPHRN [FBXO46]”, the median enrichment was found to be 5.21.
In the case of SRVSGKKHSCMSICSWNQFL [STYK1], the median enrichment is 11.
For the substance “RPSGPPLPLGQGNQLLRDFSCLEGAVIAPPHCPTVLLGL [FBXW4]”, the median enrichment was determined as 4.69.
To “GHACLPNTIWSWTTFDTNQSYWTRPLEDLKYTSHAVVYLGCDSLSNAALGKDESDLQGEKCNHTWAPVNYGTEGPNCSPKGAA [APOBEC2]” belongs 3.91; to YLCISRAHTYIVAYSQHGSRPALLI [RANBP9], 2.61.
